Reference: publication PMC10936676, “ATG9B is a tissue-specific homotrimeric lipid scramblase that can compensate for ATG9A” (Autophagy, 2023)

Biological target: the molecule itself
Assay: cryo-EM structure; single-particle cryo-EM of purified ATG9B in LMNG-CHS micelles; 20 mM Tris-HCl, 200 mM NaCl, pH 8.5; reconstructions with C3 and without symmetry

B1: 3×FLAG-6×His-TEV-ATG9B (full-length human ATG9B), purified from Expi293 cells (natural protein, UniProt Q674R7-1 1-924, looked up)
chain: MVSRMGWGGRRRRLGRWGDLGPGSVPLLPMPLPPPPPPSCRGPGGGRISIFSLSPAPHTRSSPSSFSPPTAGPPCSVLQGTGASQSCHSALPIPATPPTQAQPAMTPASASPSWGSHSTPPLAPATPTPSQQCPQDSPGLRVGPLIPEQDYERLEDCDPEGSQDSPIHGEEQQPLLHVPEGLRGSWHHIQNLDSFFTKIYSYHQRNGFACILLEDVFQLGQFIFIVTFTTFLLRCVDYNVLFANQPSNHTRPGPFHSKVTLSDAILPSAQCAERIRSSPLLVLLLVLAAGFWLVQLLRSVCNLFSYWDIQVFYREALHIPPEELSSVPWAEVQSRLLALQRSGGLCVQPRPLTELDIHHRILRYTNYQVALANKGLLPARCPLPWGGSAAFLSRGLALNVDLLLFRGPFSLFRGGWELPHAYKRSDQRGALAARWGRTVLLLAALNLALSPLVLAWQVLHVFYSHVELLRREPGALGARGWSRLARLQLRHFNELPHELRARLARAYRPAAAFLRTAAPPAPLRTLLARQLVFFAGALFAALLVLTVYDEDVLAVEHVLTAMTALGVTATVARSFIPEEQCQGRAPQLLLQTALAHMHYLPEEPGPGGRDRAYRQMAQLLQYRAVSLLEELLSPLLTPLFLLFWFRPRALEIIDFFHHFTVDVAGVGDICSFALMDVKRHGHPQWLSAGQTEASLSQRAEDGKTELSLMRFSLAHPLWRPPGHSSKFLGHLWGRVQQDAAAWGATSARGPSTPGVLSNCTSPLPEAFLANLFVHPLLPPRDLSPTAPCPAAATASLLASISRIAQDPSSVSPGGTGGQKLAQLPELASAEMSLHVIYLHQLHQQQQQQEPWGEAAASILSRPCSSPSQPPSPDEEKPSWSSDGSSPASSPRQQWGTQKARNLFPGGFQVTTDTQKEPDRASCTD
notes: ATG9B, human, canonical isoform 1 (Q674R7-1), full length; residues 191-674 visible in the cryo-EM map; A TEV site lies between the 6×His tag and ATG9B; no cleavage is described; Eluted from the anti-FLAG resin with 3×FLAG peptide; In LMNG-CHS micelles; also called ATG9B homotrimer; pcDNA3.1-3×FLAG-6×His-TEV-ATG9B; source: Expi293, transiently transfected, extracted into detergent micelles, …
Question: With B1 as the protein, how does the “stoichiometry N” value read?
Answer: 3
